Assays:
human EGFR on cells [1] = target: T1, human EGFR on cells (human, UniProt P00533 25-1210); assay: flow cytometry titration on A375 cells (EGFR-expressing)
T1 construct: whole, on cells; One molecule is used for both endogenous EGFR on human tumour cell lines and EGFR overexpressed on Ba/F3 cells; also called hEGFR; EGFR+ cells (PEO1, A375, 22RV1, CAPAN2, SW1990, H292, CASKI)
Description: (§1) Flow cytometric analysis was utilized to determine binding of anti-EGFR X anti-CD28 bispecific antibodies to several cancer cell lines (A375, 22RV1, PEO1, CAPAN2, SWi1990, H292), Human and Cynomolgus T cells and Jurkat cells followed by detection with a labeled anti-human secondary IgG antibody. […] After incubation, the cells were washed twice with cold PBS containing 1% filtered FBS and a Fluorophore-conjugated anti-human secondary antibody was added to the cells and incubated for an additional 30 minutes. Live/dead dye was added to Human and Cynomolgus T cells incubations. Wells containing no antibody or secondary only were used as a control.

human EGFR on cells [2] = target: T1, human EGFR on cells; assay: flow cytometry titration on SW1990 cells (EGFR-expressing)
Description: as §1

human EGFR on cells [3] = target: T1, human EGFR on cells; assay: flow cytometry titration on PEO1 cells (EGFR-expressing)
Description: as §1

human EGFR on cells [4] = target: T1, human EGFR on cells; assay: flow cytometry titration on CASKI cells; CASKI cells
human EGFR on cells [5] = target: T1, human EGFR on cells; assay: flow cytometry titration on A375 cells
Description: (§2) After incubation, the cells were washed twice with cold PBS containing 1% filtered FBS and a Fluorophore-conjugated anti-human secondary antibody was added to the cells and incubated for an additional 30 minutes. Live/dead dye was added to Human and Cynomolgus T cells incubations. Wells containing no antibody or secondary only were used as a control.
(§3) After incubation with EGFR expressing cells, cells were washed, re-suspended in 200 μL cold PBS containing 1% filtered FBS and analyzed by flow cytometry on a BD FACS Canto II.

human CD28 on cells = human CD28 on cells (human, UniProt P10747 19-220); assay: cell-based or functional assay
hCD28.mFc (REGN2012) = target: T2, hCD28.mFc (REGN2012) (human, UniProt P10747 19-152, limits assumed); assay: SPR (Biacore T-200) at 25 C; hCD28.mFc captured on anti-mouse Fc, antibody injected
T2 construct: also called Human CD28-mFc; hCD28 with a C-terminal mouse Fc tag; not shown: C-terminal mouse Fc tag

[6] = target: T3, hEGFR(ECD).CPGG.MMH6 (REGN355) (human, UniProt P00533 25-647); assay: SPR (Biacore 4000) at 25 C; antibody captured on anti-human Fc, hEGFR.mmH injected
T3 construct: Soluble extracellular domain with a myc-myc-hexahistidine tag; also called hEGFR.mmH; hEGFR.mmh
Description: Association was monitored for 5 minutes, and the dissociation of hEGFR.mmH in HBS-EP running buffer was monitored for 10 minutes. All of the binding kinetics experiments were performed at 25° C. Kinetic association (kₐ) and dissociation (kd) rate constants were determined by fitting the real-time sensorgrams to a 1:1 binding model using Scrubber 2.0c curve fitting software.

human EGFR on cells [7] = target: T1, human EGFR on cells; assay: flow cytometry titration on PEO1 cells
Description: as §2, §3

human EGFR on cells [8] = target: T1, human EGFR on cells; assay: flow cytometry titration on CAPAN2 cells (EGFR-expressing)
Description: as §1

human EGFR on cells [9] = target: T1, human EGFR on cells; assay: flow cytometry titration on 22RV1 cells
Description: as §2, §3

human EGFR on cells [10] = target: T1, human EGFR on cells; assay: flow cytometry titration on 22RV1 cells (EGFR-expressing)
Description: as §1

human EGFR on cells [11] = target: T1, human EGFR on cells; assay: cell-based or functional assay
human EGFR on cells [12] = target: T1, human EGFR on cells; assay: flow cytometry titration on H292 cells (EGFR-expressing)
Description: as §1

B1: REGN6323 (bispecific antibody, human IgG4 S228P, kappa)
heavy 1: QVQLQESGPGLVKPSETLSLTCTVSDDSIISYYWSWIRQPPGKGLEWIGYIYYSGRTNYNPSLKSRVTISVDTSKNQVSLKLNSVIAADTAVYYCARVSEDSYYHYGMDVWGQGTTVTVSSASTKGPSVFPLAPCSRSTSESTAALGCLVKDYFPEPVTVSWNSGALTSGVHTFPAVLQSSGLYSLSSVVTVPSSSLGTKTYTCNVDHKPSNTKVDKRVESKYGPPCPPCPAPPVAGPSVFLFPPKPKDTLMISRTPEVTCVVVDVSQEDPEVQFNWYVDGVEVHNAKTKPREEQFNSTYRVVSVLTVLHQDWLNGKEYKCKVSNKGLPSSIEKTISKAKGQPREPQVYTLPPSQEEMTKNQVSLTCLVKGFYPSDIAVEWESNGQPENNYKTTPPVLDSDGSFFLYSRLTVDKSRWQEGNVFSCSVMHEALHNHYTQKSLSLSLGK
heavy 2: QVQLQESGPGLVKPSETLSLTCTVSGGSISSYYWSWIRQPPGKGLEWIGYIYYSGITHYNPSLKSRVTISVDTSKIQFSLKLSSVTAADTAVYYCARWGVRRDYYYYGMDVWGQGTTVTVSSASTKGPSVFPLAPCSRSTSESTAALGCLVKDYFPEPVTVSWNSGALTSGVHTFPAVLQSSGLYSLSSVVTVPSSSLGTKTYTCNVDHKPSNTKVDKRVESKYGPPCPPCPAPPVAGPSVFLFPPKPKDTLMISRTPEVTCVVVDVSQEDPEVQFNWYVDGVEVHNAKTKPREEQFNSTYRVVSVLTVLHQDWLNGKEYKCKVSNKGLPSSIEKTISKAKGQPREPQVYTLPPSQEEMTKNQVSLTCLVKGFYPSDIAVEWESNGQPENNYKTTPPVLDSDGSFFLYSRLTVDKSRWQEGNVFSCSVMHEALHNRFTQKSLSLSPGK
light: not shown
notes: EGFR arm from mAb13006P2, CD28 arm from mAb14226; also called bsAb6323; EGFRxCD28
**Q.** How did the EC50 (human EGFR on cells [1]) turn out when B1 was run?
**A.** 1.48 nM

**Q.** What about the EC50 (human EGFR on cells [2]) of the same binder?
**A.** 2.96 nM

**Q.** And the EC50 (human EGFR on cells [3])?
**A.** 0.667 nM

**Q.** What about the EC50 (human EGFR on cells [4]) of the same binder?
**A.** 2.35 nM

**Q.** What about the EC50 (human EGFR on cells [5]) of the same binder?
**A.** 0.874 nM

**Q.** What about the “IL-2 Release MAX (pg/mL), human CD3+ T cells + NCI-H292 cells, with 20 nM IsoC-1” value (human CD28 on cells) of the same binder?
**A.** 13.2 pg/mL

**Q.** And the “IL-2 Release MAX (pg/mL), human CD3+ T cells + NCI-H292 cells, with 20 nM cemiplimab” value (human CD28 on cells)?
**A.** 36.7 pg/mL

**Q.** And the “Proliferation EC50 [M], human CD3+ T cells + NCI-H292 cells, with 20 nM IsoC-1” value (human CD28 on cells)?
**A.** 2.29e-11 M

**Q.** What about the “Proliferation EC50 [M], human CD3+ T cells + NCI-H292 cells, with 20 nM cemiplimab” value (human CD28 on cells) of the same binder?
**A.** 3.13e-11 M

**Q.** And the “Proliferation MAX (CPM), human CD3+ T cells + NCI-H292 cells, with 20 nM IsoC-1” value (human CD28 on cells)?
**A.** 1660 CPM

**Q.** And the “Proliferation MAX (CPM), human CD3+ T cells + NCI-H292 cells, with 20 nM cemiplimab” value (human CD28 on cells)?
**A.** 2340 CPM

**Q.** What about the Kd (hCD28.mFc (REGN2012)) of the same binder?
**A.** 10 nM

**Q.** What about the koff (hCD28.mFc (REGN2012)) of the same binder?
**A.** 0.00265 s⁻¹

**Q.** And the kon (hCD28.mFc (REGN2012))?
**A.** 265000 M⁻¹ s⁻¹

**Q.** And the “t½” value (hCD28.mFc (REGN2012))?
**A.** 4.4 min

**Q.** What about the Kd [6] of the same binder?
**A.** 3.75 nM

**Q.** What about the koff [6] of the same binder?
**A.** 0.000774 s⁻¹

**Q.** And the kon [6]?
**A.** 206000 M⁻¹ s⁻¹

**Q.** And the “t½” value [6]?
**A.** 14.9 min

**Q.** What about the EC50 (human EGFR on cells [7]) of the same binder?
**A.** 5.86 nM

**Q.** And the EC50 (human EGFR on cells [8])?
**A.** 1.29 nM

**Q.** What about the EC50 (human EGFR on cells [9]) of the same binder?
**A.** 11.9 nM

**Q.** And the EC50 (human EGFR on cells [10])?
**A.** 0.554 nM

**Q.** And the “Inhibition [%] of BaF3/hEGFR proliferation in presence of 0.5 nM hEGF” value (human EGFR on cells [11])?
**A.** 28.5%

**Q.** And the “Inhibition [%] of BaF3/hEGFR proliferation in presence of 0.5 nM hTGFβ” value (human EGFR on cells [11])?
**A.** -7.3%

**Q.** And the EC50 (human EGFR on cells [12])?
**A.** 0.674 nM
